Results taken from patent US20150064134A1.

Experiments:
Assay in all cases: cell-based or functional assay
BrSK2(h) (human) = target: T1, BrSK2(h) (human) (UniProt Q8IWQ3)
T1 sequence (looked up): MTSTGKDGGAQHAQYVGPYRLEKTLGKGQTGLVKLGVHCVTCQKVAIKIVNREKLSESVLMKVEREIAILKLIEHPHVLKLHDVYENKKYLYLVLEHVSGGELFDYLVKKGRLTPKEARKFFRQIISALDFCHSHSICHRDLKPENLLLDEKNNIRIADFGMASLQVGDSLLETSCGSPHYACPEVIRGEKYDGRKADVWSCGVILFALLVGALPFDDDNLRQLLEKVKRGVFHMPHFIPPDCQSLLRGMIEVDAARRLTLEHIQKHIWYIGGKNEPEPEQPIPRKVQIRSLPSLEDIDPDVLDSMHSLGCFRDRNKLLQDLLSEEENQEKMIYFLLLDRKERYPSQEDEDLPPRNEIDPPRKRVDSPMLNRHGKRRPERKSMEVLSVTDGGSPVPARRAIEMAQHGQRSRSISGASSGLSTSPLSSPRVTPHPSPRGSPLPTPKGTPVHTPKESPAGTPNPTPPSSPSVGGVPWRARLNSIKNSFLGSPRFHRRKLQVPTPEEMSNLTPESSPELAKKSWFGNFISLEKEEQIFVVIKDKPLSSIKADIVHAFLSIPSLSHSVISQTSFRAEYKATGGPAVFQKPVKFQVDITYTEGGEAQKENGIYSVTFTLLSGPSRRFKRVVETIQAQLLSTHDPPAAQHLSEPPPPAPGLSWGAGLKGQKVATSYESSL

CDK1/cyclinB(h) (human) = CDK1/cyclinB(h) (human) (UniProt P06493)
EGFR(L861Q)(h) (human) = EGFR(L861Q)(h) (human) (UniProt P00533)
[1] = target: EGFR(T790M,L858R)(h) (human) (UniProt P00533)
EphA3(h) (human) = target: T2, EphA3(h) (human) (UniProt P29320)
T2 sequence (looked up): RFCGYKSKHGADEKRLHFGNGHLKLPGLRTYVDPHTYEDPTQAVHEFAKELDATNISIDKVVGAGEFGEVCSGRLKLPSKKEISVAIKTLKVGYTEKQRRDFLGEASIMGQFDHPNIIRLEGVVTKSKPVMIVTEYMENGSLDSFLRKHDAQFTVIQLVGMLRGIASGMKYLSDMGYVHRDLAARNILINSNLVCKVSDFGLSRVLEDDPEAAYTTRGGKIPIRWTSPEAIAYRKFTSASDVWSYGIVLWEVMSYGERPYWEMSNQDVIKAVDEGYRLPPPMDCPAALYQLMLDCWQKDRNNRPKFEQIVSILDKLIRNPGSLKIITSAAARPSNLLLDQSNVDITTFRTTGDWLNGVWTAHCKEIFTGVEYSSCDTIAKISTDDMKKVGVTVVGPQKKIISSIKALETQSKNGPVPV

IR(h) (human) = IR(h) (human) (UniProt P06213)
LKB1(h) (human) = target: T3, LKB1(h) (human) (UniProt Q15831)
T3 sequence (looked up): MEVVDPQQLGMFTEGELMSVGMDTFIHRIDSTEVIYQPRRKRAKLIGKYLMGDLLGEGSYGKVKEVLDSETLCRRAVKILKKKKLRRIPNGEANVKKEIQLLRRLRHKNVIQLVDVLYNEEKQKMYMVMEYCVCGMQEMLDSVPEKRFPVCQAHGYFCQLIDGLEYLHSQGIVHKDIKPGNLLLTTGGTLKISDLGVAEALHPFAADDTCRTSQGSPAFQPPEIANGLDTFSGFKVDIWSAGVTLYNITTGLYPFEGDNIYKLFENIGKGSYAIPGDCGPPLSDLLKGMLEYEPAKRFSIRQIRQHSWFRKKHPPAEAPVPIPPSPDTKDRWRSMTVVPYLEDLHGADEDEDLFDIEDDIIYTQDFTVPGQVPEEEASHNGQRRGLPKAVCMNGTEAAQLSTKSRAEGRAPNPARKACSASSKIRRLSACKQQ

MAPKAP-K3(h) (human) = MAPKAP-K3(h) (human) (UniProt Q16644)
MELK(h) (human) = MELK(h) (human) (UniProt Q14680)
PKCα(h) (human) = PKCα(h) (human) (UniProt P17252)
PKCβII(h) (human) = PKCβII(h) (human) (UniProt P05771)
PKCε(h) (human) = PKCε(h) (human) (UniProt Q02156)
PTK5(h) (human) = PTK5(h) (human) (UniProt P42685)
Src(T341M)(h) (human) = Src(T341M)(h) (human) (UniProt P12931)
TBK1(h) (human) = target: T4, TBK1(h) (human) (UniProt Q9UHD2)
T4 sequence (looked up): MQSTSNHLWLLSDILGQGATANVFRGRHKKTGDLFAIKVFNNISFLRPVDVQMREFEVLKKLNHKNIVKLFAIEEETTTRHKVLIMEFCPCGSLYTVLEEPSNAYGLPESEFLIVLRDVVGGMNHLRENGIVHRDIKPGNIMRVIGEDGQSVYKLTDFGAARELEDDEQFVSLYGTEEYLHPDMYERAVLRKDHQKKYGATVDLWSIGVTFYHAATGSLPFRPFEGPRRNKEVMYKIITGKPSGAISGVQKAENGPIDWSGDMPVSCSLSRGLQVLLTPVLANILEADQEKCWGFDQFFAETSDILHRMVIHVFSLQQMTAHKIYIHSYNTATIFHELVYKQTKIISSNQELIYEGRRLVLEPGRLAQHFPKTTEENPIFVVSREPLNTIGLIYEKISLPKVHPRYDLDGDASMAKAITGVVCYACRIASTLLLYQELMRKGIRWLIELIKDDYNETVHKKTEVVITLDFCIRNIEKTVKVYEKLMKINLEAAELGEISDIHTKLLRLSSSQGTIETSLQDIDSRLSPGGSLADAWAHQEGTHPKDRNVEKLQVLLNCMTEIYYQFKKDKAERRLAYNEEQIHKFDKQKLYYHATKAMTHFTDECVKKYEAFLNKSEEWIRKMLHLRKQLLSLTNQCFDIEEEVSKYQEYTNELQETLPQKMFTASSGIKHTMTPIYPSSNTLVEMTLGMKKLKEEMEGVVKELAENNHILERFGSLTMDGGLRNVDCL

WNK3(h) (human) = WNK3(h) (human) (UniProt Q9BYP7)

Chain of PTK5(h) (human) (P42685 whole entry): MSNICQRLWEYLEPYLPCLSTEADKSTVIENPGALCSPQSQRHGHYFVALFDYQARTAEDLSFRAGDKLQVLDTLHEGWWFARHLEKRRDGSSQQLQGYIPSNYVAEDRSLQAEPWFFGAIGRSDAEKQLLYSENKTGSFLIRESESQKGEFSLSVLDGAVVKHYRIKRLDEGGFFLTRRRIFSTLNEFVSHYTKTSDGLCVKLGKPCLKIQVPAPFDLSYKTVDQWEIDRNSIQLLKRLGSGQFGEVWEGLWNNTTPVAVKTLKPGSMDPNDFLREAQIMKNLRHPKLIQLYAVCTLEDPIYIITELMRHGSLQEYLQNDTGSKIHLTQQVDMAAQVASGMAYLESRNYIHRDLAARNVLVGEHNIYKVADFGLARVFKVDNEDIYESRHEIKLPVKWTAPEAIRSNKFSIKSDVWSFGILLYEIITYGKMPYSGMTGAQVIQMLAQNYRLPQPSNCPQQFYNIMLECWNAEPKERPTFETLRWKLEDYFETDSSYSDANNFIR
Chain of IR(h) (human) (P06213 1005-1310 limits assumed): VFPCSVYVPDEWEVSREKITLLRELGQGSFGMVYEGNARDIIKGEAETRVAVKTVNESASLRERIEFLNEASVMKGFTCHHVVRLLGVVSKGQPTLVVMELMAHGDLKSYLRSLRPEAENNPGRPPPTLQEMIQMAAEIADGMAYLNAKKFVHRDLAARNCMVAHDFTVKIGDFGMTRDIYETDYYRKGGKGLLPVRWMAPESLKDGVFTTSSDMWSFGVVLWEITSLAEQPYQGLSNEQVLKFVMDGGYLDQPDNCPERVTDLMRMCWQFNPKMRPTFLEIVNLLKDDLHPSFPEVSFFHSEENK

% activity at 100 µM (BrSK2(h) (human)) [%] | % activity at 100 µM (CDK1/cyclinB(h) (human)) [%] | % activity at 100 µM (EGFR(L861Q)(h) (human)) [%] | % activity at 100 µM [1] [%] | % activity at 100 µM (EphA3(h) (human)) [%] | % activity at 100 µM (IR(h) (human)) [%] | % activity at 100 µM (LKB1(h) (human)) [%] | % activity at 100 µM (MAPKAP-K3(h) (human)) [%] | % activity at 100 µM (MELK(h) (human)) [%] | % activity at 100 µM (PKCα(h) (human)) [%] | % activity at 100 µM (PKCβII(h) (human)) [%] | % activity at 100 µM (PKCε(h) (human)) [%] | % activity at 100 µM (PTK5(h) (human)) [%] | % activity at 100 µM (Src(T341M)(h) (human)) [%] | % activity at 100 µM (TBK1(h) (human)) [%] | % activity at 100 µM (WNK3(h) (human)) [%] | Substance
83 | 73 | 25 | 85 | 6 | 96 | 101 | 3 | 16 | 89 | 82 | 79 | 132 | 70 | 37 | 77 | MMI-0300 (peptide)
86 | 74 | 22 | 78 | 12 | 85 | 89 | 7 | 17 | 86 | 75 | 59 | 129 | 76 | 39 | 74 | MMI-0400 (peptide)
84 | 57 | 15 | 53 | 33 | 95 | 51 | 9 | 0 | 3 | 3 | 23 | 96 | 59 | 16 | 9 | MMI-0500 (peptide)
